What was measured:
[1] = molecular target: HOPS (homotypic fusion and vacuole protein sorting complex) (S. cerevisiae, UniProt P12868;Q03308;P27801;P20795;Q07468;P38959); experiment: liposome floatation
[2] = molecular target: phospho-HOPS (HOPS phosphorylated by the vacuolar kinase Yck3p) (S. cerevisiae, UniProt P12868;Q03308;P27801;P20795;Q07468;P38959); experiment: liposome floatation

B1: Ypt7p:GTP (vacuolar Rab-family GTPase Ypt7p in its GTP-bound state) (natural protein)
chain: MSSRKKNILKVIILGDSGVGKTSLMHRYVNDKYSQQYKATIGADFLTKEVTVDGDKVATMQVWDTAGQERFQSLGVAFYRGADCCVLVYDVTNASSFENIKSWRDEFLVHANVNSPETFPFVILGNKIDAEESKKIVSEKSAQELAKSLGDIPLFLTSAKNAINVDTAFEEIARSALQQNQADTEAFEDDYNDAINIRLDGENNSCSC
Q: Does B1 bind [1]?
A: Result: binds

Q: Does B1 bind [2]?
A: Result: binds

From paper PMC4294677 (Molecular Biology of the Cell, 2015)
